The source of these data is IntAct's records for PubMed 16630557.

The labels stand for the following.
B1: mRNA-decapping enzyme subunit 1 (Saccharomyces cerevisiae), Q12517 (parent)
chain: MTGAATAAENSATQLEFYRKALNFNVIGRYDPKIKQLLFHTPHASLYKWDFKKDEWNKLEYQGVLAIYLRDVSQNTNLLPVSPQEVDIFDSQNGSNNIQVNNGSDNSNRNSSGNGNSYKSNDSLTYNCGKTLSGKDIYNYGLIILNRINPDNFSMGIVPNSVVNKRKVFNAEEDTLNPLECMGVEVKDELVIIKNLKHEVYGIWIHTVSDRQNIYELIKYLLENEPKDSFA

In the assay the parent is B1. The note with it: with erf3_yeast SUP35, P05453.
Sequence of erf3_yeast SUP35, P05453 (P05453 whole entry): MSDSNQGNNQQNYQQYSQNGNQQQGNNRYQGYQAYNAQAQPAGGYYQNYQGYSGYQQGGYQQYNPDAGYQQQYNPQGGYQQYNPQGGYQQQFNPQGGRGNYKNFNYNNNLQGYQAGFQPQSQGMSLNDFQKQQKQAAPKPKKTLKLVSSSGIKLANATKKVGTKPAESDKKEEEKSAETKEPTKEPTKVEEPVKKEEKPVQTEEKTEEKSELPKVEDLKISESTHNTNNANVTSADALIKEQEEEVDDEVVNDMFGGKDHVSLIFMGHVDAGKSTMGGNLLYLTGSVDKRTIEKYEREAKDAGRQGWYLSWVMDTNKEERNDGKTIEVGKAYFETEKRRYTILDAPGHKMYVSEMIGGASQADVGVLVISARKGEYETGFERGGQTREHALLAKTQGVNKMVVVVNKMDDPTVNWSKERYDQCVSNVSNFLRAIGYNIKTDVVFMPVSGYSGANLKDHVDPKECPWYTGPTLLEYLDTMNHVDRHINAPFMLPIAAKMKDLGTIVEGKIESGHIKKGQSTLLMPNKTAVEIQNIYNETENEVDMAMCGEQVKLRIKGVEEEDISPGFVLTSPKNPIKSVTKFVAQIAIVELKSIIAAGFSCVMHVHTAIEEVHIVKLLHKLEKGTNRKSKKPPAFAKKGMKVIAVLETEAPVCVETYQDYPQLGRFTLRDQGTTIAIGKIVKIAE
Turning to MTGAATAAENSATQLEFYRKALNFNVIGRYDPKIKQLPFHTPHAPLYKWDFKKDEWNKLEYQGVLAIYLRDVSQNTNLLPVSPQEVDIFDSQNGSNNIQVNNGSDNSNRNSSGNGNSYKSNDSLTYNCGKTLSGKDIYNYGLIILNRINPDNFSMGIVPNSVVNKRKVFNAEEDTLNPLECMGVEVKDELVIIKNLKHEVYGIWIHTVSDRQNIYELIKYLLENEPKDSFA [L38P;S45P], the “effect of a mutation on the interaction” value was “decreasing interaction”.

MTGAATAAENSATQLEFYRKALNFNVIGRYDPKIKQLLFHTPHAPLYKWDFKKDEWNKLEYQGVLAIYLRDVSQNTNLLPVSPQEVDIFDSQNGSNNIQVNNGSDNSNRNSSGNGNSYKSNDSLTYNCGKTLSGKDIYNYGLIILNRINPDNFSMGIVPNSVVNKRKVFNAEEDTLNPLECMGVEVKDELVIIKNLKHEVYGIWIHTVSDRQNIYELIKYLLENEPKDSFA [S45P]: the “effect of a mutation on the interaction” value was “decreasing interaction”.
